The numbers were not newly measured in patent publication US12466859B2, “Desmoglein 2 (DSG2) binding proteins and uses therefor” (UNIVERSITY OF WASHINGTON THROUGH ITS CENTER FOR …, priority 2013, dated 2025), which cites them from elsewhere.

Holding throughout (conditions): previous studies (37, 41, 42); cited from earlier work
One data set concerns Ad3-GFP virus.
A further data set deals with T1, DSG2 (Homo sapiens, UniProt Q14126).
T1 construct: Western blot using soluble recombinant DSG2 as a probe; purchased Leinco Technologies, Inc. (St. Louis, MO)
T1 sequence (Q14126 50-609 limits assumed): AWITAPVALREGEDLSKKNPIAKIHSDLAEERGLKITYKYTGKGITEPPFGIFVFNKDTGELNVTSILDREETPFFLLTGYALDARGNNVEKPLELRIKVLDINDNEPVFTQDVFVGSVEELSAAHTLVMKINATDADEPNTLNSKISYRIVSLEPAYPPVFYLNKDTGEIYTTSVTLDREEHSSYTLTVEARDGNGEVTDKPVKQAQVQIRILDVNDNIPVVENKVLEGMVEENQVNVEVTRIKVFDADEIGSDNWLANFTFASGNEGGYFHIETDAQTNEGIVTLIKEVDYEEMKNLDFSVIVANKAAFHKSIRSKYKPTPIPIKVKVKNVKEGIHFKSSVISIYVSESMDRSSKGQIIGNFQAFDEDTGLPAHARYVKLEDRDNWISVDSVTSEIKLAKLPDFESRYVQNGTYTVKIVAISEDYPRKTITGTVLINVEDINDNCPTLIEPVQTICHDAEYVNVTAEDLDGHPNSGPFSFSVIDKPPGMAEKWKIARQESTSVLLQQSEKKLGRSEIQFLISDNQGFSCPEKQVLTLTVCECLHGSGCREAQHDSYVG

Data set [1] deals with polarized colon cancer T84 cells.

B1: Ad3 knob monomer: Recombinant (trimeric) fiber knob with two shaft motifs, but without the dimerization domain (protein)
chain: NKLCSKLGNGLTFDSSNSIALKNNTLWTGPKPEANCIIEYGKQNPDSKLTLILVKNGGIVNGYVTLMGASDYVNTLFKNKNVSINVELYFDATGHILPDSSSLKTDLELKYKQTADFSARGFMPSTTAYPFVLPNAGTHNENYIFGQCYYKASDGALFPLEVTVMLNKRLPDSRTSYVMTFLWSLNAGLAPETTQATLITSPFTFSYIREDD
modifications: left off: small tags and cut ends
notes: Recombinant (trimeric) fiber knob with two shaft motifs, but without the dimerization domain
Turning to B1, the “Block of Ad3 infection” value in the data set with Ad3-GFP virus is “not able to block Ad3 infection”. For the same molecule, the “Affinity of binding to DSG2 relative to JO-1” value with DSG2 is “orders of magnitude less than JO-1”. Besides, the Junction opening entry in data set [1] is “does not trigger junction opening”.
